The results in this text go back to US20120014941A1 (Hoffmann-La Roche, published 2012).

Test [1] has as its target Cynomologus Monkey Bv8 (Genentech; PUR21590) (cynomolgus monkey). The test is described as follows: SPR (BIAcore 3000, 25 C): cynomolgus monkey Bv8 coupled to CM5 chip, IgG injected; 1:1 Langmuir fit.
In test [2] the target is T1, recombinant human Bv8 (PeproTech) (human, UniProt Q9HC23-2 28-108, biotinylated (Sulfo-NHS-LC-biotin) in the two competition ELISAs with coated antibody).
T1 construct: Bought protein; also called HuBv8; prokineticin-2
T1 sequence (looked up): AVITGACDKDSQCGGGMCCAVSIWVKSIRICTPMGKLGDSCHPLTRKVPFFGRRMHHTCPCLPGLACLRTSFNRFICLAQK
The test is described as follows: SPR (BIAcore 3000, 25 C): human Bv8 coupled to CM5 chip, IgG injected; 1:1 Langmuir fit. The text has this:
(§1) For binding affinity determinations of anti-Bv8 antibodies (Fab or IgG), Surface Plasmon Resonance (SRP) measurement with a BIAcore™-3000 instrument was used. Briefly, CM5 biosensor chip was activated with EDC and NHS reagents according to the supplier's instructions, and human Bv8 (PeproTech) or Cynomologus Monkey (Genentech; PUR21590) was coupled to achieve approximately 150 response units (RU), then following by blocking un-reacted groups with 1M ethanolamine. For kinetics measurements, two-fold serial dilutions of anti-Bv8 Fabs (0.19 nM to 25 nM) or IgGs (0.019 nM to 10 nM) were injected in HBS-P buffer (0.01M HEPES pH 7.4, 0.15M NaCl, 0.005% surfactant P20) at 25° C. with a flow rate of 30 μl/min. Association rates (kₒₙ) and dissociation rates (koff) were calculated using a simple one-to-one Langmuir binding model (BIAcore Evaluation Software version 3.2). The equilibrium dissociation constant (Kd) was calculated as the ratio koff/kₒₙ.
Background: In SPR one partner is held on a chip, and binding of the other changes the refractive index at the surface.

For test [3], the target named is T1, recombinant human Bv8 (PeproTech). The test is described as follows: competitive ELISA: antibody in serial dilution mixed with biotinylated human Bv8 (57 pM) and put on plate coated with mouse 2G9 IgG1 (m5, the competitor); streptavidin-HRP, OD 450/620; four-parameter fit. How it is done:
Maxisorp 384 well plates were coated with 1 μg/ml parent mouse 2G9 IgG1 antibody at 25 μl/well in 50 mM sodium carbonate buffer, pH 9.6, at 4° C. overnight. Plates were washed with phosphate buffered saline (PBS) containing 0.05% polysorbate, pH 7.4 and blocked with PBS containing 0.5% BSA, 10 ppm Proclin, pH 7.4, at 80 μL1/well. After one-hour incubation at room temperature, plates were washed. A mixture of serially diluted humanized 2G9 antibodies (0.11 pM-180 nM) in PBS containing 0.5% BSA, 0.05% polysorbate 20, pH 7.4 and biotinylated human Bv8 (final concentration 0.5 ng/ml or 57 pM) were added at 25 μL1/well. After two hour incubation, plates were washed and horseradish peroxidase conjugated streptavidin (GE Healthcare) was added. After a final 30 minute incubation, plates were washed and the substrate 3,3′,5,5′-tetramethyl benzidine (Kirkegaard & Perry Laboratories) was added. The reaction was stopped by adding 1 M phosphoric acid and absorbance was read at 450 nm on a Multiskan Ascent reader (Thermo Scientific, Hudson, N.H.). For data analysis, the titration curves were fitted using a four-parameter nonlinear regression curve-fitting program and the IC₅₀ concentrations were determined (KaleidaGraph, Synergy Software, Reading, Pa.).
(In general: An ELISA detects its analyte on a solid surface through an enzyme-linked reagent.)

Test [4] shares this target. In words: competition ELISA: IgG in serial dilution preincubated with 2 nM biotinylated human Bv8, then put on plate coated with chimeric 2B9 IgG (the competitor); bound biotin-Bv8 read with streptavidin-HRP, in %. How it is done: NUNC™ 96-well Maxisorp immunoplates (NUNC; Roskilde, Denmark) were coated with chimeric 2B9 IgG at 1 μg/mL in PBS overnight and then blocked for an hour at room temperature with PBST buffer (0.5% BSA and 0.05% Tween 20 in PBS). Biotinylation of human Bv8 was prepared using EZ-link Sulfo-NHS-LC-Biotin (Catalog 21335; Pierce; Rockford, Ill.) reagent in a molar ratio of 1:4 (HuBv8: biotin).
To determine the amount of biotinylated human Bv8 in the competition assay, threefold serially diluted biotinylated human Bv8 from 100 nM to 0.04 nM were added to the antibody-coated plates for 15 minutes. Then, the plates were washed with PBT buffer (PBS and 0.05% Tween 20). Bound biotinylated were detected using streptavidin, which were conjugated with horseradish peroxidase (Catalog 21126; Pierce; Rockford, Ill.) and diluted 1:2500 in PBST buffer. […] The optical density was read spectrophotometrically at 450 nm.
To map the Bv8 antibody epitopes with chimeric 2B9, threefold serial dilutions of IgGs (chimeric 2B9, chimeric 3F1, chimeric 2D3, chimeric 2G9 and control IgG) were first incubated with 2 nM biotinylated human Bv8, determined by the above binding assay, in PBST buffer for 1-2 hours at room temperature, and then transferring it onto antibody (chimeric 2B9 IgG; 1 μg/mL)-coated plate for 15 min. […]

In test [5] the target is Cynomologus Monkey Bv8 (Genentech; PUR21590) (cynomolgus monkey). The test is described as follows: SPR, BIAcore-3000, Bv8 coupled to CM5 chip, IgG (FIG. 21).
For test [6], the target named is T1, recombinant human Bv8 (PeproTech). The description is as above.
Source text: as §1

Test [7] has the same target. The test is described as follows: SPR (BIAcore 3000, 25 C): human Bv8 coupled to CM5 chip, IgG injected; 1:1 Langmuir fit.
Source text: as §1
This is another data set of the same source.

Test [8] has as its target Cynomologus Monkey Bv8 (Genentech; PUR21590) (cynomolgus monkey). The test is described as follows: SPR (BIAcore 3000, 25 C): cynomolgus monkey Bv8 coupled to CM5 chip, IgG injected; 1:1 Langmuir fit; off-rate followed for 30 min.
Test [9] addresses T1, recombinant human Bv8 (PeproTech). In words: SPR (BIAcore 3000, 25 C): human Bv8 coupled to CM5 chip, IgG injected; 1:1 Langmuir fit; off-rate followed for 30 min.
Source text: as §1

The target is the same in test [10]. Described as above.
Source text: as §1
The source holds these as a separate data set.

Test [11] deals with Cynomologus Monkey Bv8 (Genentech; PUR21590) (cynomolgus monkey). The test is described as follows: SPR (BIAcore 3000, 25 C): cynomolgus monkey Bv8 coupled to CM5 chip, IgG injected; 1:1 Langmuir fit. The source holds these as a separate data set.

Read-outs that look alike come from different tables or passages of the source.

B1: chimeric 2G9 anti-Bv8 antibody (IgG) (antibody, V domains shown)
VH: EVQLQQSGPEVVKTGASVKISCKASGYSFTDYDMHWVKQSQGKSLEWIGYISCYNGATTYNQKFKGKATFTVDKSSTTAYMQFNSLTSEDSAVYYCARDGNYGEAYAMDYWGQGTSLTVSS
VL: DIVLTQSPASLAVSLGQRATISCKASQSVDYDGDSYMNWYQQKPGQPPKLLIYAASNLESGIPARFSGSGSGTDFTLNIHPVEEEDAATYYCQQINEDPFTFGQGTKVEIK
notes: also called chimeric 2G9 IgG
Turning to B1, in test [1], the Kd amounted to 0.04 nM, the koff turned out to be 2.5e-05 s⁻¹ and the kon turned out to be 646000 M⁻¹ s⁻¹. Also, in [2], the Kd turned out to be 0.02 nM, the koff was 1.8e-05 s⁻¹ and the kon came out at 758000 M⁻¹ s⁻¹. The IC50 in test [3] came to 0.08 nM. The “IC50 (read off the curve)” value in [4] is roughly 1 nM.

B2: h2G9.K4G1.v19 IgG (antibody, V domains shown)
VH: EVQLVQSGAEVKKPGASVKVSCKASGYSLTNYDMHWVRQAPGQGLEWIGYIHSYSGSTLYNQKFKGRVTITVDKSTSTAYLELSSLRSEDTAVYYCARDSNYGEAYAMDYWGQGTLVTVSS
VL: DIVMTQSPDSLAVSLGERATINCKASQSVDYSGDSYMNWYQQKPGQPPKLLIYAASNLESGVPDRFSGSGSGTDFTLTISSLQAEDVAVYYCQQINEDPFTFGQGTKVEIKR
notes: Variable domains only; IgG, constant regions not described; claims 6 and 7); also called humanized 2G9 variant 19
For the molecule B2, the fold tighter binding than chimeric 2G9 in test [5] is greater than 2 fold; in test [6] it was no less than 2 fold. The figures for the kon in test [1], in test [7] and in test [2] were 501000 M⁻¹ s⁻¹, 760000 M⁻¹ s⁻¹ and 760000 M⁻¹ s⁻¹, respectively. Further, the Kd was less than 0.009 nM in [8], no more than 0.007 nM in [9] and no more than 0.007 nM in test [10]. For the same molecule, the koff in test [8] was less than 5e-06 s⁻¹; in [9], no more than 5e-06 s⁻¹; in test [10] it was no more than 5e-06 s⁻¹. In addition, in test [3], the IC50 turned out to be 0.014 nM.

B3: h2G9.K4G1.v55 IgG (antibody, V domains shown)
VH: EVQLVQSGAEVKKPGASVKVSCKASGYSFTDYDMHWVRQAPGQGLEWIGYISSYSGATTYNQKFKGRVTITVDKSTSTAYLELSSLRSEDTAVYYCARDSNYGEAYAMDYWGQGTLVTVSS
VL: DIVMTQSPDSLAVSLGERATINCKASQSLDYYHYSYMNWYQQKPGQPPKLLIYAASNRESGVPDRFSGSGSGTDFTLTISSLQAEDVAVYYCQQINEDPFTFGQGTKVEIKR
notes: Variable domains only; IgG, constant regions not described; claims 8 and 9); also called humanized 2G9 variant 55
With B3, the fold tighter binding than chimeric 2G9 in test [5] was greater than 2 fold; in test [6] it was no less than 2 fold. Moreover, the kon in test [11] was 780000 M⁻¹ s⁻¹; in [1], 775000 M⁻¹ s⁻¹; in test [7], 950000 M⁻¹ s⁻¹; in test [2], 945000 M⁻¹ s⁻¹. For the same molecule, the values for the Kd in test [8], in test [9] and in [10] were less than 0.006 nM, no more than 0.005 nM and no more than 0.005 nM, respectively. For the same molecule, the koff was less than 5e-06 s⁻¹ in test [8], no more than 5e-06 s⁻¹ in test [9] and no more than 5e-06 s⁻¹ in [10]. Moreover, the IC50 in [3] turned out to be 0.013 nM.

The Kd is a measure of binding affinity in units of concentration. The koff is the rate constant with which the complex falls apart. What is called kon is a measure of how fast the partners come together. As usually defined, the IC50 is the concentration that gives 50% inhibition.
